{"source": "paper PMC8042443", "about": "“PKCα-mediated phosphorylation of the diacylglycerol kinase ζ MARCKS domain switches cell migration modes by regulating interactions with Rac1 and RhoA” (The Journal of Biological Chemistry, 2021)", "binders": {"B1": {"name": "HA-tagged wild-type diacylglycerol kinase ζ (enzyme)", "chain": "not shown", "notes": "diacylglycerol kinase ζ (DGKζ), wild type; also called HA-DGKζ; HA-DGKζ^WT; source: MEFs, infected with adenoviral vector or transiently transfected, in lysate"}}, "key": {"[1]": {"biological_target": "T1, GST fusion protein of constitutively active RhoA (RhoA^V14) (UniProt P61586 1-193, RhoA^V14)", "T1 construct": "RhoA, constitutively active V14 mutant; cDNA from the Missouri S&T cDNA Resource Center, subcloned into pGEX-4T-3; also called GST-RhoA^V14; source: recombinant GST fusion (pGEX-4T-3), purified as described previously", "T1 sequence (P61586 other isoform, or with tags, fused parts or gaps RhoA^V14 | RhoA^V14)": "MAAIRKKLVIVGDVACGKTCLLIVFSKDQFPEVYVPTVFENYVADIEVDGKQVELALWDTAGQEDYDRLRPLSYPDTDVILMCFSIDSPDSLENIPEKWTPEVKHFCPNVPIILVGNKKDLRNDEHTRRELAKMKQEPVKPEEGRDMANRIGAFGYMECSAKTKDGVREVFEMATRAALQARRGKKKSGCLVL", "test": "pull-down; GST fusion proteins immobilised on beads, incubated 1 to 2 h at 4 °C with lysates of MEFs expressing HA-tagged DGKζ constructs; washed at least four times with ice-cold lysis buffer; bound DGKζ detected by anti-HA immunoblot; in some panels cells were treated with vehicle, 100 nM PMA, or 1 μM Gö6976 before PMA", "details": "one partner purified"}, "[2]": {"biological_target": "T2, GST fusion protein of inactive RhoA (RhoA^N19) (UniProt P61586 1-193, RhoA^N19)", "T2 construct": "cDNA from the Missouri S&T cDNA Resource Center, subcloned into pGEX-4T-3; also called GST-RhoA^N19; GST-RhoN^19; source: recombinant GST fusion (pGEX-4T-3), purified as described previously", "T2 sequence (P61586 other isoform, or with tags, fused parts or gaps RhoA^N19 | RhoA^N19)": "as the sequence (P61586 other isoform, or with tags, fused parts or gaps RhoA^V14 | RhoA^V14) above, with V14G, T19N counted along it", "test": "pull-down; GST fusion proteins immobilised on beads, incubated 1 to 2 h at 4 °C with lysates of MEFs expressing HA-tagged DGKζ constructs; washed at least four times with ice-cold lysis buffer; bound DGKζ detected by anti-HA immunoblot; in some panels cells were treated with vehicle, 100 nM PMA, or 1 μM Gö6976 before PMA", "details": "one partner purified"}}, "data": [{"binder": "B1", "values": [{"measurement": "fold change of binding after PMA against vehicle control", "setting": "[1]", "result": "~2", "unit": "fold"}, {"measurement": "fold change of binding after PMA against vehicle control", "setting": "[2]", "result": "~2", "unit": "fold"}]}]}
